Measurements taken from patent US11932673.

Molecular target: trypsin
Assay: monoclonal phage ELISA

| Binder | ELISA signal |
| --- | --- |
| F07 (KnotBody with EET 5-3 framing) (scFv, V domains shown) VH: EVQLVESGGGLVRPGGSLRLSCAASGFTFSSYAMSWVRQAPGKGLEWVSAISGSGGSTYYADSVKGRFTISRDNTKNSLYLQMTSLRADDTAFYYCVKDFGPGYGTGWFDYWGPGTLVTVSS VL: AVNWYQQLPGKAPKLLIYAAGGCGPNGFCGSGSDGGVCPRILMRCKQDSDCLAGCGGQSGVPDRFSGSKSGTSASLAISRLQSEDEADYYCAAWDDSLNAYVFGTGTKVTVLG | 72800 |
| G11 (KnotBody with EET 5-3 framing) (scFv, V domains shown) VH: EVQLVESGGGLVRPGGSLRLSCAASGFTFSSYAMSWVRQAPGKGLEWVSAISGSGGSTYYADSVKGRFTISRDNTKNSLYLQMTSLRADDTAFYYCVKDFGPGYGTGWFDYWGPGTLVTVSS VL: AVNWYQQLPGKAPKLLIYAAGGCGPNGFCGSGSDGGVCPRILMRCKQDSDCLAGCGQSSGVSDRFSGSKSGTSATLDITGLQTGDEADYYCGTWDNSLSVGVFGGGTKVTVLG | 27600 |

The remaining lines, values ahead:

| ELISA signal | Binder |
| --- | --- |
| 68000 | F03 (KnotBody with EET 5-3 framing) (scFv, V domains shown) VH: EVQLVESGGGLVRPGGSLRLSCAASGFTFSSYAMSWVRQAPGKGLEWVSAISGSGGSTYYADSVKGRFTISRDNTKNSLYLQMTSLRADDTAFYYCVKDFGPGYGTGWFDYWGPGTLVTVSS VL: AVNWYQQLPGRAPKLLIYAAGGCGPNGFCGSGGDGGVCPRILMRCKQDSDCLAGCGAHSGIPERFSGSKSGTSASLAISGLRSEDEADYYCAAWDDSLNGWVFGGGTKVTVLG |
| 70300 | E09 (KnotBody with EET 5-3 framing) (scFv, V domains shown) VH: EVQLVESGGGLVRPGGSLRLSCAASGFTFSSYAMSWVRQAPGKGLEWVSAISGSGGSTYYADSVKGRFTISRDNTKNSLYLQMTSLRADDTAFYYCVKDFGPGYGTGWFDYWGPGTLVTVSS VL: AVNWYQQLPGKAPKLLIYAAGGCGPNGFCGSGSDGGVCPRILMRCKQDSDCLAGCGTQSGIPERFSGSKSGTSASLAISGLRSEDEADYYCAAWDDSLRAYVFGTGTQLTVLG |
